According to IntAct's records for PubMed 21311754:

How the values were obtained:
apc_human APC [1] = molecular target: apc_human APC (UniProt P25054)
apc_human APC [2] = molecular target: apc_human APC (UniProt P25054); remark: listed apart in the source

apc_human APC, sequence (P25054 whole entry): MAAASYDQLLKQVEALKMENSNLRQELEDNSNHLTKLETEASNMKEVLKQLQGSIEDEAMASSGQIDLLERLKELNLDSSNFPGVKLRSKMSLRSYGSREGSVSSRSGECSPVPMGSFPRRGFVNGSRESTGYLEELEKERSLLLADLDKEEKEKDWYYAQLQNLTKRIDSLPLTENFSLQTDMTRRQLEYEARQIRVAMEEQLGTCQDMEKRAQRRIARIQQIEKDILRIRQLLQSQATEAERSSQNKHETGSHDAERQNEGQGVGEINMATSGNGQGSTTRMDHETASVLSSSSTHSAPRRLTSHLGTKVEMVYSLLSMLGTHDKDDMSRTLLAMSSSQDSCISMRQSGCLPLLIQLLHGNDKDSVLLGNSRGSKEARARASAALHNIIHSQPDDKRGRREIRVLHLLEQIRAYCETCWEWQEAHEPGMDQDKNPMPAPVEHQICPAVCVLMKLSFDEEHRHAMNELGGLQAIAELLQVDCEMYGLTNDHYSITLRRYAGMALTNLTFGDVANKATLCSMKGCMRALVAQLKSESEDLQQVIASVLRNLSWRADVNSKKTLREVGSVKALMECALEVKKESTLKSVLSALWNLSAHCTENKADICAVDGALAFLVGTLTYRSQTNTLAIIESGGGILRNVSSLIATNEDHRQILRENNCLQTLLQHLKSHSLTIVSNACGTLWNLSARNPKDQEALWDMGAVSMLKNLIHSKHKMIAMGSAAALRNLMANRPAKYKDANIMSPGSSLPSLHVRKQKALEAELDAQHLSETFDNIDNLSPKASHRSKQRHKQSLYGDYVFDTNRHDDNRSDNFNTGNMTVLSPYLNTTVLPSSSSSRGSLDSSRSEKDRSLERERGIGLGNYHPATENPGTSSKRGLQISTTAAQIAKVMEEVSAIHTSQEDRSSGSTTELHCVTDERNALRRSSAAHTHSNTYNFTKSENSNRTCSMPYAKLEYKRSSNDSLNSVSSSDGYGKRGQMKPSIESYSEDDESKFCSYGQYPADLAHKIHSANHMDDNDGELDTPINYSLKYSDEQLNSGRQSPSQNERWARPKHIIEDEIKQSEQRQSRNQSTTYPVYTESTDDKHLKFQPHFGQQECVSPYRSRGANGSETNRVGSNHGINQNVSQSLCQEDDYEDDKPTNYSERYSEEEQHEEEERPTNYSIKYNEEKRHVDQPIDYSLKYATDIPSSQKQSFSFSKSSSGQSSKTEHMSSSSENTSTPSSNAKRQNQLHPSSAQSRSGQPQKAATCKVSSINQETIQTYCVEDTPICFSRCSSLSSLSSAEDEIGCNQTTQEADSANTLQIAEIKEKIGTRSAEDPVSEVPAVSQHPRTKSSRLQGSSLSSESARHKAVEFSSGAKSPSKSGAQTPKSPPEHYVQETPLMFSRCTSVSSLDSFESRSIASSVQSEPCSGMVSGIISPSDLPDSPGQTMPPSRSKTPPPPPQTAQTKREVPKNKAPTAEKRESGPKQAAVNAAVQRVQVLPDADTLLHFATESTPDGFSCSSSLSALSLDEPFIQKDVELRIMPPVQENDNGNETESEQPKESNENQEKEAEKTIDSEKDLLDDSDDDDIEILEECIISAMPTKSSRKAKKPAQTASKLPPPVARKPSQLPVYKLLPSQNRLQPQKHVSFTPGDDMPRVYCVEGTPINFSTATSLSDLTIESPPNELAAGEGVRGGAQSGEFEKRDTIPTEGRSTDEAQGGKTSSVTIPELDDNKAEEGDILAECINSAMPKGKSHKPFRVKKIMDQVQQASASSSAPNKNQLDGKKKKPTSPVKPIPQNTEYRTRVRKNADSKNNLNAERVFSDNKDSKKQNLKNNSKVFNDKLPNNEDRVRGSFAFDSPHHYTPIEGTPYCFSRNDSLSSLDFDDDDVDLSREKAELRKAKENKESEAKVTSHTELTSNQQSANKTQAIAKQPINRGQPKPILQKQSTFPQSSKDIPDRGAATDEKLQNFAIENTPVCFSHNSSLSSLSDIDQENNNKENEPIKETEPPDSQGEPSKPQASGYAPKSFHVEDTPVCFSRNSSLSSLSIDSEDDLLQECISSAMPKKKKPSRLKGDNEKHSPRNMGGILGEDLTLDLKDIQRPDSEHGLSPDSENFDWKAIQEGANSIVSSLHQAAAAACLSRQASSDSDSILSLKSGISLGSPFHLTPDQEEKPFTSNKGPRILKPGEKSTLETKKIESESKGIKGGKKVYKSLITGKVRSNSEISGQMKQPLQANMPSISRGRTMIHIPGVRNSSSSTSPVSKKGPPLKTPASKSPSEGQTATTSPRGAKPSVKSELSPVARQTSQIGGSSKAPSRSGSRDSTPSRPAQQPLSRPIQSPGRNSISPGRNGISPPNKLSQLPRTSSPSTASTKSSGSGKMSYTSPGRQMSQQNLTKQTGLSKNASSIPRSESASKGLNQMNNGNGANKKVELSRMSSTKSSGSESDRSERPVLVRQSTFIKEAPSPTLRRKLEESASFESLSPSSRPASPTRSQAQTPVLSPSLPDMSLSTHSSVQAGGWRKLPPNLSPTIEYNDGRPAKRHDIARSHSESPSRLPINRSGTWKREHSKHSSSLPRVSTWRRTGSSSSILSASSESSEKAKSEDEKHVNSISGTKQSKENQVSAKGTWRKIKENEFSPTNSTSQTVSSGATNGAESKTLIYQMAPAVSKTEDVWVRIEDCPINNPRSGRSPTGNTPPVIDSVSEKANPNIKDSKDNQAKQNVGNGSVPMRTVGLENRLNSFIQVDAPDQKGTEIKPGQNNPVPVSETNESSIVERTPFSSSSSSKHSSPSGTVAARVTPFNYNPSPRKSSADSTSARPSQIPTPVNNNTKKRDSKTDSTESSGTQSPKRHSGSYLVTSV
Cell division control protein 42 homolog (Homo sapiens), P60953 T17N, sequence (P60953 whole entry T17N): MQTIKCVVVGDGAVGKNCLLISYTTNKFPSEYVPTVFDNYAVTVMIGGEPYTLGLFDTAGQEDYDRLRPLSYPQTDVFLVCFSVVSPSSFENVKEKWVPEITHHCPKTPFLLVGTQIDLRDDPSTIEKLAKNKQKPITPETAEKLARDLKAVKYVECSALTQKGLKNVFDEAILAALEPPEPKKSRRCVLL

- effect of a mutation on the interaction (apc_human APC [1]): disrupting interaction strength
- effect of a mutation on the interaction (apc_human APC [2]): decreasing interaction strength
Substance: Cell division control protein 42 homolog (Homo sapiens), P60953 T17N
